From paper PMC11865472

Biological target: biotinylated TGF-β2 homodimer
Test: SPR
Details: surface: TGF-β2; parent: est. 33; read off a plot

Substance | Kd
zebrafish betaglycan orphan domain (zfBGO) K316A | 0.13 µM
zebrafish betaglycan orphan domain (zfBGO) K319A | 0.18 µM

Same assay, conditions: surface: TGF-β2; parent: est. 160; read off a plot

Substance | Kd
rat betaglycan ZP-C domain (BG_(ZP-C)), mammalian-expressed K86A | 0.07 µM
rat betaglycan ZP-C domain (BG_(ZP-C)), mammalian-expressed D88A | 0.23 µM
rat betaglycan ZP-C domain (BG_(ZP-C)), mammalian-expressed W162A | 0.73 µM
rat betaglycan ZP-C domain (BG_(ZP-C)), mammalian-expressed E130A | 1.4 µM
rat betaglycan ZP-C domain (BG_(ZP-C)), mammalian-expressed M164A | 0.32 µM
rat betaglycan ZP-C domain (BG_(ZP-C)), mammalian-expressed L143A | 0.13 µM
rat betaglycan ZP-C domain (BG_(ZP-C)), mammalian-expressed W162A; M165A | 1.3 µM
rat betaglycan ZP-C domain (BG_(ZP-C)), mammalian-expressed Q166A | 0.2 µM
rat betaglycan ZP-C domain (BG_(ZP-C)), mammalian-expressed S155A | 0.29 µM
rat betaglycan ZP-C domain (BG_(ZP-C)), mammalian-expressed M165A | 0.33 µM

Biological target: inhibin A (InhA), mature heterodimer (UniProt P05111)
Sequence (P05111 233-366, chain 1 of 2): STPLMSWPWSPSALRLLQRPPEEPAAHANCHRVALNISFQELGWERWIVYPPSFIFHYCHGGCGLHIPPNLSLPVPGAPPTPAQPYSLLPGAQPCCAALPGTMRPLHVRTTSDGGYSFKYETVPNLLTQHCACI
Sequence (P08476 311-426, chain 2 of 2, further chain): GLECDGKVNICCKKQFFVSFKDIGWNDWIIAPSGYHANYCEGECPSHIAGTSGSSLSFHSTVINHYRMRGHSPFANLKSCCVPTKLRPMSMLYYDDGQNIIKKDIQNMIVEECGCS
Test: SPR; TGF-β2 (b) or InhA (c) immobilised; BGZP-C mutants injected, 2-fold serial dilutions 500 - 15.6 nM; three consecutive repeats
Details: not given

Substance | Kd
BGZP-C I161Y (domain or fragment) | 0.815 µM
BGZP-C N82Y (domain or fragment) | 0.883 µM
BGZP-C N82A (domain or fragment) | 0.968 µM
BGZP-C I161A (domain or fragment) | 1.08 µM

Biological target: TGF-β2 (growth factor domain, wild type) (human)
Test: SPR; TGF-β2 immobilised on the chip surface; ratBGO, zfBGO, ratBGO-zfBL or ratBGO-Y248A injected, 2-fold dilution series 500 - 31.3 nM; three consecutive repeats
Details: not given

Substance | Kd
ratBGO-zfBL (ratBGO with the shortened binding loop of zfBGO) (from UniProt P26342 31-360) (domain or fragment) | 0.088 µM
zebrafish betaglycan orphan domain (zfBGO), wild type (domain or fragment) | 0.086 µM

Biological target: TGF-β2 (Y50A, L51A) (human)
Test: SPR; BIAcore T200; TGF-β2 WT or TGF-β2 mutants amine-coupled (EDC-NHS) to a CM4 chip, max 400 RU; zfBGO WT or BGZP-C WT injected, 2-fold dilution series 250 - 15.6 nM; 10 mM CHES, 150 mM NaCl, 3 mM EDTA, 0.01% P20, pH 8.0; 100 µl/min; 1:1 kinetic model with drift; three consecutive repeats
Details: not given

Substance | Kd
zebrafish betaglycan orphan domain (zfBGO), wild type (domain or fragment) | 0.205 µM

Biological target: TGF-β2 (growth factor domain, wild type) (human)
Test: as above
Details: not given

Substance | Kd
zebrafish betaglycan orphan domain (zfBGO), wild type (domain or fragment) | 0.148 µM

Biological target: biotin-TGF-β2 (minimally biotinylated TGF-β2) (human)
Test: SPR; BIAcore X100; minimally biotinylated TGF-β2 captured on a neutravidin CM5 chip, max 50 RU; zfBGO variants injected, 2-fold dilution series (500 or 1000 - 31.3 nM); 10 mM CHES, 150 mM NaCl, 3 mM EDTA, 0.01% P20, pH 8.6; 100 µl/min; 1:1 kinetic model; two consecutive repeats
Details: not given

Substance | Kd
zfBGO K319A (domain or fragment) | 0.175 µM
zfBGO L208A (domain or fragment) | 0.088 µM
zebrafish betaglycan orphan domain (zfBGO), wild type (domain or fragment) | 0.038 µM
zfBGO K316A (domain or fragment) | 0.135 µM
